Consider two molecules from publication PMC7948490 (2020).

Assay [1] addresses T1, F-actin (alpha-actin, skeletal muscle) (Gallus gallus, UniProt P68139). The assay is described as follows: kinetic global fit (KinTek Explorer).
Assay [2] deals with T1, F-actin (alpha-actin, skeletal muscle). The assay is described as follows: kinetic global fit (KinTek Explorer), no nucleotide.
For assay [3] the target is unchanged. As to the kind of experiment: stopped-flow pyrene-actin fluorescence (k-A/k+A), 20 °C, no nucleotide.

B1: Myosin-1C0-ΔTH1 isoform C0 lacking TH1 domain (protein)
chain: MESALTARDRVGVQDFVLLENFTSEAAFIENLRRRFRENLIYTYIGPVLVSVNPYRDLQIYSRQHMERYRGVSFYEVPPHLFAVADTVYRALRTERRDQAVMISGESGAGKTEATKRLLQFYAETCPAPERGGAVRDRLLQSNPVLEAFGNAKTLRNDNSSRFGKYMDVQFDFKGAPVGGHILSYLLEKSRVVHQNHGERNFHIFYQLLEGGEEETLRRLGLERNPQSYLYLVKGQCAKVSSINDKSDWKVVRKALTVIDFTEDEVEDLLSIVASVLHLGNIHFAANEESNAQVTTENQLKYLTRLLSVEGSTLREALTHRKIIAKGEELLSPLNLEQAAYARDALAKAVYSRTFTWLVGKINRSLASKDVESPSWRSTTVLGLLDIYGFEVFQHNSFEQFCINYCNEKLQQLFIELTLKSEQEEYEAEGIAWEPVQYFNNKIICDLVEEKFKGIISILDEECLRPGEATDLTFLEKLEDTVKHHPHFLTHKLADQRTRKSLGRGEFRLLHYAGEVTYSVTGFLDKNNDLLFRNLKETMCSSKNPIMSQCFDRSELSDKKRPETVATQFKMSLLQLVEILQSKEPAYVRCIKPNDAKQPGRFDEVLIRHQVKYLGLLENLRVRRAGFAYRRKYEAFLQRYKSLCPETWPTWAGRPQDGVAVLVRHLGYKPEEYKMGRTKIFIRFPKTLFATEDALEVRRQSLATKIQAAWRGFHWRQKFLRVKRSAICIQSWWRGTLGRRKAAKRKWAAQTIRRLIRGFVLRHAPRCPENAFFLDHVRTSFLLNLRRQLPQNVLDTSWPTPPPALREASELLRELCIKNMVWKYCRSISPEWKQQLQQKAVASEIFKGK
With B1, the dissociation constant Kd in assay [1] is 10800 nM; in assay [2] it was 13 nM; in assay [3], 13.7 nM.

B2: Myosin-1C35-ΔTH1 isoform C35 lacking TH1 domain (protein)
chain: MALQVELVPTGEIIRVVHPHRPCKLALGSDGVRVTMESALTARDRVGVQDFVLLENFTSEAAFIENLRRRFRENLIYTYIGPVLVSVNPYRDLQIYSRQHMERYRGVSFYEVPPHLFAVADTVYRALRTERRDQAVMISGESGAGKTEATKRLLQFYAETCPAPERGGAVRDRLLQSNPVLEAFGNAKTLRNDNSSRFGKYMDVQFDFKGAPVGGHILSYLLEKSRVVHQNHGERNFHIFYQLLEGGEEETLRRLGLERNPQSYLYLVKGQCAKVSSINDKSDWKVVRKALTVIDFTEDEVEDLLSIVASVLHLGNIHFAANEESNAQVTTENQLKYLTRLLSVEGSTLREALTHRKIIAKGEELLSPLNLEQAAYARDALAKAVYSRTFTWLVGKINRSLASKDVESPSWRSTTVLGLLDIYGFEVFQHNSFEQFCINYCNEKLQQLFIELTLKSEQEEYEAEGIAWEPVQYFNNKIICDLVEEKFKGIISILDEECLRPGEATDLTFLEKLEDTVKHHPHFLTHKLADQRTRKSLGRGEFRLLHYAGEVTYSVTGFLDKNNDLLFRNLKETMCSSKNPIMSQCFDRSELSDKKRPETVATQFKMSLLQLVEILQSKEPAYVRCIKPNDAKQPGRFDEVLIRHQVKYLGLLENLRVRRAGFAYRRKYEAFLQRYKSLCPETWPTWAGRPQDGVAVLVRHLGYKPEEYKMGRTKIFIRFPKTLFATEDALEVRRQSLATKIQAAWRGFHWRQKFLRVKRSAICIQSWWRGTLGRRKAAKRKWAAQTIRRLIRGFVLRHAPRCPENAFFLDHVRTSFLLNLRRQLPQNVLDTSWPTPPPALREASELLRELCIKNMVWKYCRSISPEWKQQLQQKAVASEIFKGK
On to B2, for which the Kd in assay [1] amounted to 22200 nM; in assay [2], 16.3 nM; in assay [3] it was 16.9 nM.
